Experiment in all cases: cell_activity
Series [1] has as its system ZFN 59581 (synthetic construct). To be noted: indels with partner 59580, 6 ug mRNA, activated T cells; 83 at 2 ug, 72 at 0.5 ug.
Series [2] deals with ZFN 59440 (synthetic construct). To be noted: indels with partner 59441, 6 ug mRNA, activated T cells; 82 at 2 ug, 59 at 0.5 ug; F6 printed ATCCLAH in Table 1, ATCGLAH in claim.
Series [3] relates to ZFN 59580 (synthetic construct). To be noted: indels with partner 59581, 6 ug mRNA, activated T cells; 83 at 2 ug, 72 at 0.5 ug.
Series [4] deals with ZFN 59489 (synthetic construct). As to conditions: indels with partner 59488, 6 ug mRNA, activated T cells; 84 at 2 ug, 60 at 0.5 ug.
The test system of series [5] is ZFN 59557 (synthetic construct). To be noted: indels with partner 59558, 6 ug mRNA, activated T cells; 80 at 2 ug, 55 at 0.5 ug.
In series [6] the test system is ZFN 59558 (synthetic construct). As to conditions: indels with partner 59557, 6 ug mRNA, activated T cells; 80 at 2 ug, 55 at 0.5 ug.
Series [7] relates to ZFN 59488 (synthetic construct). To be noted: indels with partner 59489, 6 ug mRNA, activated T cells; 84 at 2 ug, 60 at 0.5 ug.
Series [8] concerns ZFN 59441 (synthetic construct). As to conditions: indels with partner 59440, 6 ug mRNA, activated T cells; 82 at 2 ug, 59 at 0.5 ug.

As for “ATAGTGCTGCACAAGGCTGACCACATCC (double strand) [CISH exon 3 site 59581]”, the activity in series [1] was 82%. Consider “CCAGCAAAGGACGAGGTCTAGAAGGCAG (double strand) [CISH exon 2 site 59440]”, for which the activity in series [2] is 84%.

For the sequence “CCGGAAAGGCCAGGATGCGTGGCCTGGA (double strand) [CISH exon 3 site 59580]”, in series [3], the activity is 82%. The sequence “GAGGAGGTGGCAGAGGGTACCCCAGCCC (double strand) [CISH exon 2 site 59489]” had an activity in series [4] of 89%. In series [5], “GAGTCCAGACGGAAGCTGGAGTCGGCAT (double strand) [CISH exon 3 site 59557]” had an activity of 84%. With “GATGCGTGGCCTGGACAAGCAGTTGGAG (double strand) [CISH exon 3 site 59558]”, in series [6], the activity is 84%. “GGAAGGCCCCAGCAGGCAAGGGCTGCAT (double strand) [CISH exon 2 site 59488]” gave an activity in series [7] of 89%. In series [8], “GTGGAGCGGACTGGGCAGCGGCCCCTGT (double strand) [CISH exon 2 site 59441]” displayed an activity of 84%.
